Assay [1] deals with T1, CXCR4 (Homo sapiens, UniProt P61073).
T1 construct: expressed in transfected cells; host or cells: HEK293T, transient; membrane fraction
Put plainly: Competition binding, displacement of [^125I]-CXCL12 on membranes from HEK293T cells transiently expressing CXCR4. The settings on record: maximal displacement; membranes from HEK293T cells transiently expressing CXCR4; mean ± S.E.M. The method, then: (§1) Iodine incorporation and specific activity were controlled via precipitation of the protein with trichloroacetic acid.
(§2) Competition binding assay—Periplasmic fractions were screened in a competition binding assay using membranes from HEK293T cells transiently expressing CXCR4. […] Membranes were then harvested over polyethylenimine (0.5%)-treated Whatman GF/C filter plates and washed three times with ice cold binding buffer containing 500 mM NaCl. Plates were counted by liquid scintillation.
(§3) Characterization of Nanobody binding to CXCR4—Following purification, receptor binding to characteristics for 238D2 and 238D4 were investigated on cell membranes from HEK293T cells transiently expressing CXCR4.
(§4) Data analysis and presentation—Data are presented as mean±S.E.M. from n independent experiments. Concentration response curves (E/[A] curves) were fitted to the Hill equation using an iterative, least-squares method (GraphPad Prism 4.0, GraphPad Software, San Diego, Calif.) to provide maximal inhibitory effects (Imax), half maximal effective (EC50) or inhibitory concentrations (IC50). Competition binding affinities and functional antagonist affinities (Ki) were calculated using the Cheng and Prusoff equation Ki=IC50/(1+[agonist]/EC50) (Cheng & Prusoff, 1973).

For assay [2], the target named is T1, CXCR4. Put plainly: Competition binding, displacement of [^125I]-238D2 on membranes from HEK293T cells transiently expressing CXCR4. The method, then:
as §1, §2, §3, §4

The target of assay [3] is T1, CXCR4. The assay can be described thus: Competition binding, displacement of [^125I]-238D4 on membranes from HEK293T cells transiently expressing CXCR4. The method, then:
as §1, §2, §3, §4

Assay [4] addresses T2, CXCR4 (N119A) (Homo sapiens, UniProt P61073, N119A).
T2 construct: expressed in transfected cells; host or cells: HEK293T, transient; membranes in A4, whole cells in A5
Put plainly: Competition binding with [125I]-CXCL12 on constitutively active CXCR4 mutant N119A. The following applies: competition with [125I]-CXCL12 (40 pM); for binding to CXCR4 (N119A) (in words): highest nanobody test concentration 2 μM. The method, then: Competition binding assay—Periplasmic fractions were screened in a competition binding assay using membranes from HEK293T cells transiently expressing CXCR4. In short, periplasmic extracts (1:10) or ligands were pre-incubated with membranes in binding buffer (50 mM HEPES (pH 7.4), 1 mM CaCl2, 5 mM MgCl2, 100 mM NaCl, 0.5% bovine serum albumin) supplemented with 0.5% BSA for 1 h at 22° C. before the addition of [^125I]-CXCL12 (40 pM) or [^125I]-238D2 (3 nM) or [^125I]-238D4 (3 nM) for additional 2 h at 22° C. […] Membranes were then harvested over polyethylenimine (0.5%)-treated Whatman GF/C filter plates and washed three times with ice cold binding buffer containing 500 mM NaCl. Plates were counted by liquid scintillation.
CXCR4—specific Nanobodies behave as neutral antagonists or inverse agonists on constitutively active mutants of CXCR4—The CXCR4—specific monovalent Nanobodies 238D2 and 238D4 as well as their bivalent fusion products L3 and L8 were investigated on the constitutively active CXCR4 mutant N119A (equivalent to N3.35A in the Ballestros-Weinstein numbering of class A GPCRs). […] Despite of the large number of CAMs for other class A GPCRs and further efforts to generate additional CAMs for CXCR4 (Berchiche et al., 2007), the N119 mutants of CXCR4 remain the only known CAMs for this receptor. […] Methods: Preparation of membranes and competition binding experiments with [125I]-CXCL12 (40 pM) were performed as described before for wild type CXCR4 (vide supra).

The target of assay [5] is T2, CXCR4 (N119A). The assay can be described thus: Basal inositol phosphate accumulation in HEK293T cells transiently expressing CXCR4 (N119A). The assay is classed as cell-based. The following applies: for functional profile on CXCR4 (N119A) (in words): ligand-induced alteration of basal inositol phosphate accumulation; for reduction of the constitutively increased basal signalling of CXCR4 (N119A): basal inositol phosphate accumulation, HEK293T cells transiently expressing CXCR4 (N119A). The text has this:
The functional profile of monovalent Nanobodies 238D2 and 238D4 as well as their bivalent fusion products L3 and L8 on CXCR4 (N119A) were investigated by measurement of the ligand-induced alteration of the basal inositol phosphate accumulation. HEK293T cells transiently expressing CXCR4 (N119A) show a 3-8 times higher basal rate of inositol phosphate accumulation compared to wild type CXCR4 or mock (which are virtually at the same level). […] The nanobody-induced reduction of basal inositol phosphate accumulation was antagonized by the selective neutral CXCR4 antagonist plerixafor confirming that the observed […] effects are mediated via CXCR4 (N119A).

Assay [6] addresses wildtype human CXCR4 (pcDNA3.1-CXCR4, expressed in HEK293T) (human) (UniProt P61073). The assay can be described thus: competition with [125I]-238D2, HEK293T-CXCR4 membranes.
For assay [7] the target is unchanged. Put plainly: competition with [125I]-238D4, HEK293T-CXCR4 membranes.
For assay [8] the target is unchanged. The assay can be described thus: competition with [125I]-CXCL12, HEK293T-CXCR4 membranes.
For assay [9], the target named is CXCR4 mutation library clone 1057 (K230E, S178R) (human) (UniProt P61073). The assay can be described thus: immunofluorescence on HEK-293T expressing the clone, normalised to wild type.
The target in assay [10] is CXCR4 mutation library clone 1129 (F189V) (human) (UniProt P61073). Described as above.
Assay [11] concerns the target CXCR4 mutation library clone 185 (E277A, I245V, N298S) (human) (UniProt P61073). The assay is described as above.
For assay [12], the target named is CXCR4 mutation library clone 2084 (D187V) (human) (UniProt P61073). Described as above.
The target of assay [13] is CXCR4 mutation library clone 2184 (P191T) (human) (UniProt P61073). Described as above.
Assay [14] addresses CXCR4 mutation library clone 2270 (V196E) (human) (UniProt P61073). Described as above.
Assay [15] concerns the target CXCR4 mutation library clone 2396 (S178C) (human) (UniProt P61073). Described as above.
Assay [16] addresses CXCR4 mutation library clone 2834 (E179V, G258E) (human) (UniProt P61073). Described as above.
For assay [17], the target named is CXCR4 mutation library clone 3622 (E277G) (human) (UniProt P61073). Described as above.
Assay [18] has as its target CXCR4 mutation library clone 3630 (W195R) (human) (UniProt P61073). Described as above.
Assay [19] concerns the target CXCR4 mutation library clone 3728 (D187A, Y157C) (human) (UniProt P61073). The assay is described as above.
In assay [20] the target is CXCR4 mutation library clone 414 (C218R, E179V, S351T) (human) (UniProt P61073). Described as above.
The target in assay [21] is CXCR4 mutation library clone 465 (F189L, S319P, V155E) (human) (UniProt P61073). Described as above.
The target in assay [22] is CXCR4 mutation library clone 709 (P163L, S178I) (human) (UniProt P61073). Described as above.
For assay [23], the target named is CXCR4 mutation library clone 913 (F189S, K308R) (human) (UniProt P61073). The assay is described as above.
Assay [24] concerns the target CXCR4 mutation library clone 914 (N192K) (human, UniProt P61073 1-352). The description is as above.
Where [25] appears, read: maximal displacement, mean ± S.E.M.

Chain of wildtype human CXCR4 (pcDNA3.1-CXCR4, expressed in HEK293T) (human) (P61073 whole entry): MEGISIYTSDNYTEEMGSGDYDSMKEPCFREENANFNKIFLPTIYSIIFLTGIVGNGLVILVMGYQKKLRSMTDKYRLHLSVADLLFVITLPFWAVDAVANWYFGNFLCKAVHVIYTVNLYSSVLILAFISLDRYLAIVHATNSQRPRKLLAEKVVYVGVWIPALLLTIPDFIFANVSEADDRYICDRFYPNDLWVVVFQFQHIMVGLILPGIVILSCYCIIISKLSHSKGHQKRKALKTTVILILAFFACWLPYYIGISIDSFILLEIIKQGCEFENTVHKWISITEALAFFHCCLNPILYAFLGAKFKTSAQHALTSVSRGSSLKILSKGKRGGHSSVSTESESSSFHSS
T1 sequence (P61073 whole entry): as above
T2 sequence (P61073 whole entry N119A): as the sequence (P61073 whole entry) above, with N119A counted along it
Chain of CXCR4 mutation library clone 709 (P163L, S178I) (human) (P61073 whole entry P163L/S178I): as the sequence (P61073 whole entry) above, with P163L, S178I counted along it
Chain of CXCR4 mutation library clone 2184 (P191T) (human) (P61073 whole entry P191T): as the sequence (P61073 whole entry) above, with P191T counted along it
Chain of CXCR4 mutation library clone 465 (F189L, S319P, V155E) (human) (P61073 whole entry V155E/F189L/S319P): as the sequence (P61073 whole entry) above, with V155E, F189L, S319P counted along it
Chain of CXCR4 mutation library clone 414 (C218R, E179V, S351T) (human) (P61073 whole entry E179V/C218R/S351T): as the sequence (P61073 whole entry) above, with E179V, C218R, S351T counted along it
Chain of CXCR4 mutation library clone 185 (E277A, I245V, N298S) (human) (P61073 whole entry I245V/E277A/N298S): as the sequence (P61073 whole entry) above, with I245V, E277A, N298S counted along it
Chain of CXCR4 mutation library clone 2396 (S178C) (human) (P61073 whole entry S178C): as the sequence (P61073 whole entry) above, with S178C counted along it
Chain of CXCR4 mutation library clone 2834 (E179V, G258E) (human) (P61073 whole entry E179V/G258E): as the sequence (P61073 whole entry) above, with E179V, G258E counted along it
Chain of CXCR4 mutation library clone 913 (F189S, K308R) (human) (P61073 whole entry F189S/K308R): as the sequence (P61073 whole entry) above, with F189S, K308R counted along it
Chain of CXCR4 mutation library clone 3630 (W195R) (human) (P61073 whole entry W195R): as the sequence (P61073 whole entry) above, with W195R counted along it
Chain of CXCR4 mutation library clone 914 (N192K) (P61073 whole entry N192K): as the sequence (P61073 whole entry) above, with N192K counted along it
Chain of CXCR4 mutation library clone 3622 (E277G) (human) (P61073 whole entry E277G): as the sequence (P61073 whole entry) above, with E277G counted along it
Chain of CXCR4 mutation library clone 1129 (F189V) (human) (P61073 whole entry F189V): as the sequence (P61073 whole entry) above, with F189V counted along it
Chain of CXCR4 mutation library clone 2084 (D187V) (human) (P61073 whole entry D187V): as the sequence (P61073 whole entry) above, with D187V counted along it
Chain of CXCR4 mutation library clone 2270 (V196E) (human) (P61073 whole entry V196E): as the sequence (P61073 whole entry) above, with V196E counted along it
Chain of CXCR4 mutation library clone 3728 (D187A, Y157C) (human) (P61073 whole entry Y157C/D187A): as the sequence (P61073 whole entry) above, with Y157C, D187A counted along it
Chain of CXCR4 mutation library clone 1057 (K230E, S178R) (human) (P61073 whole entry S178R/K230E): as the sequence (P61073 whole entry) above, with S178R, K230E counted along it

Consider `c1cc(CN2CCCNCCNCCCNCC2)ccc1CN1CCCNCCNCCCNCC1` [AMD3100, reference compound], for which the “[^125I]-CXCL12 Displacem. (%)” value in [1] turned out to be 94 ± 2%. Also, the “displacement of [^125I]-238D2 (in words)” value in assay [2] was “affinities comparable to those obtained against [^125I]-CXCL12”. Also, the “[^125I]-238D2 Displacem. (%)” value in [2] (setting [25]) was determined as 102 ± 1%. Further, the “displacement of [^125I]-238D4 (in words)” value in assay [3] was “affinities comparable to those obtained against [^125I]-CXCL12”. The “[^125I]-238D4 Displacem. (%)” value in assay [3] (setting [25]) worked out at 99 ± 4%. The “binding to CXCR4 (N119A) (in words)” value in assay [4] is “clearly bind to the mutant receptor”. In assay [5], the “functional profile on CXCR4 (N119A) (in words)” value (“functional profile on CXCR4” below) is on record as “Only antagonistic but no significant inverse agonistic activities”.

In the case of monoclonal antibody 12G5, the maximal displacement (%) in assay [6] stood at 89%; in assay [7] it was 90%; in assay [8] it was 54%. Also, the pKi was 9.65 pKi in [6], 9.31 pKi in assay [7] and 9.19 pKi in assay [8]. The % immunofluorescence in [9] came out at 112%; in assay [10], 94.7%; in assay [11], 93.9%; in assay [12] it was 89.5%; in assay [13], 118%; in assay [14], 96.8%. Also, the % immunofluorescence in assay [15] is 91.8%; in [16], 1.5%; in assay [17], 61.3%; in [18], 85.5%; in assay [19], 95.1%; in assay [20], -9.1%. Further, the % immunofluorescence in assay [21] was 50.4%; in [22] it was 113%; in assay [23] it was 110%; in [24], 57.7%.

In the case of “CXCL12: CXCR4 reference ligand, human CXCL12 (SDF-1) [reference compound]”, the “stimulation of the mutant receptor” value in [5] (inositol phosphate accumulation, CXCR4 (N119A)) is given as 0.4 fold over basal.

B1: L3: bivalent fusion product 238D2-15GS-238D4, SEQ ID NO: 4 (protein)
chain: EVQLVESGGGLVQTGGSLRLSCAASGFTFSSYAMSWVRQAPGKGLEWVSGIKSSGDSTRYAGSVKGRFTISRDNAKNMLYLQMYSLKPEDTAVYYCAKSRVSRTGLYTYDNRGQGTQVTVSSGGGGSGGGGSGGGGSEVQLMESGGGLVQAGGSLRLSCAASGRTFNNYAMGWFRRAPGKEREFVAAITRSGVRSGVSAIYGDSVKDRFTISRDNAKNTLYLQMNSLKPEDTAVYTCAASAIGSGALRRFEYDYSGQGTQVTVSS
modifications: Nanobody construct
As for B1, in assay [4], the “binding affinities to CXCR4 (N119A) compared to wild type (in words)” value was “somewhat less compared to the wild type receptor” and the “binding to CXCR4 (N119A) (in words)” value is on record as “able to bind to CXCR4 (N119A)”. In [5], the “reduction of the constitutively increased basal signalling of CXCR4 (N119A)” value is 64% and the “functional profile on CXCR4” value is “partial inverse agonists”.

B2: L8: bivalent fusion product 238D2-20GS-238D4, SEQ ID NO: 5 (protein)
chain: EVQLVESGGGLVQTGGSLRLSCAASGFTFSSYAMSWVRQAPGKGLEWVSGIKSSGDSTRYAGSVKGRFTISRDNAKNMLYLQMYSLKPEDTAVYYCAKSRVSRTGLYTYDNRGQGTQVTVSSGGGGSGGGGSGGGGSGGGGSEVQLMESGGGLVQAGGSLRLSCAASGRTFNNYAMGWFRRAPGKEREFVAAITRSGVRSGVSAIYGDSVKDRFTISRDNAKNTLYLQMNSLKPEDTAVYTCAASAIGSGALRRFEYDYSGQGTQVTVSS
modifications: Nanobody construct
On to B2, for which, in assay [4], the “binding affinities to CXCR4 (N119A) compared to wild type (in words)” value is reported as “somewhat less compared to the wild type receptor” and the “binding to CXCR4 (N119A) (in words)” value is reported as “able to bind to CXCR4 (N119A)”. Further, in assay [5], the “reduction of the constitutively increased basal signalling of CXCR4 (N119A)” value is listed as 65% and the “functional profile on CXCR4” value is “partial inverse agonists”.

The record behind these values is patent US20110117113A1, “IMMUNOGLOBULIN SINGLE VARIABLE DOMAIN DIRECTED AGAINST HUMAN CXCR4 AND OTHER CELL ASSOCIATED PROTEINS AND METHODS TO GENERATE THEM” (priority 2009, published 2011).
